The record followed here is US20230399650.

Data set [1] has as its system VapBC hetero-octamer, VapB Q12A (VapBA12C) (Shigella sonnei). In words: SPR. The following applies: 25 C, 50 mM Tris pH 8.0, 150 mM NaCl; approximate.
For data set [2], the system named is VapBC hetero-octamer, VapB Q12L (VapBL12C, CS14 allele) (Shigella sonnei). In words: SPR. The following applies: 25 C, 50 mM Tris pH 8.0, 150 mM NaCl; traces not at equilibrium; methods state chip duplex SH167 annealed with SH181 (SH181 printed is operator site 2 sequence).
Data set [3] concerns T1, VapB^A12 (Shigella sonnei VapB, Q12A).
T1 sequence: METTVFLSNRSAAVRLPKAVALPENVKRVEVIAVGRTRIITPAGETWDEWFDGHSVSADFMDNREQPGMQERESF

Data set [4] concerns T2, VapB^L12 (VapB of Shigella sonnei CS14, Q12L).
T2 sequence: T1 sequence with A12L

Data set [5] concerns T3, VapB^Q12 (Shigella sonnei 53G wild-type VapB antitoxin).
T3 sequence: T1 sequence with A12Q

Residue numbers refer to the chain shown, from its start.

As for “ATCATAAACGTATATCCCTTTGACATATCCCG (double strand) [vapBC operator site 1, biotinylated for SPR (SH180 printed)]”, the binding signal (fold lower affinity than VapBQ12C) in data set [1] came out at 10; in data set [2], 4.
As to Shigella Lon protease, hexameric (Lon6), in data set [3], the “degradation of VapB by Lon in the presence of long-chain polyphosphate” value (shortened to “degradation … of long-chain polyphosphate”) is “significantly enhanced Lon degradation of both VapB^L12 and VapB^A12”; the “degradation of VapB by Lon in the presence of operator DNA or control DNA” value is “neither operator DNA nor control DNA affect Lon degradation of VapB^L12 or VapB^A12”; the “degradation of VapB by Lon, in vitro proteolysis with and without ATP, SDS-PAGE” value (“degradation … with and without ATP, SDS-PAGE” for short) is listed as “VapB degradation by Lon protease is ATP dependent”; the “degradation of VapB by Lon, in vitro proteolysis, SDS-PAGE” value is “after two hours we observed that VapB^A12 was degraded significantly more than VapB^L12”. In data set [4], the “degradation … of long-chain polyphosphate” value was “significantly enhanced Lon degradation of both VapB^L12 and VapB^A12”; the “degradation of VapB by Lon in the presence of operator DNA or control DNA” value is reported as “neither operator DNA nor control DNA affect Lon degradation of VapB^L12 or VapB^A12”; the “degradation of VapB by Lon, in vitro proteolysis over four hours, SDS-PAGE” value was “no significant difference in the degradation of VapB^Q12 and VapB^L12 by Lon protease over the course of assays”; the “degradation … with and without ATP, SDS-PAGE” value is reported as “VapB degradation by Lon protease is ATP dependent”. Also, in data set [5], the “degradation after 4 hours, in the presence of control DNA” value was 31% vs 55% degradation after 4 hours; the “degradation after 4 hours, without DNA” value is given as 31% vs 55% degradation after 4 hours; the “degradation of VapB by Lon in the presence of control DNA” value was “significant degradation of VapB^Q12 was observed within two hours”; the “degradation … of long-chain polyphosphate” value is “Polyphosphate significantly reduced Lon degradation of VapB^Q12”. Also, in data set [5], the “degradation of VapB by Lon in the presence of operator DNA” value was “virtually no degradation of VapB^Q12 over the course of assays”; the “degradation of VapB by Lon, in vitro proteolysis over four hours, SDS-PAGE” value is “no significant difference in the degradation of VapB^Q12 and VapB^L12 by Lon protease over the course of assays”; the “degradation … with and without ATP, SDS-PAGE” value is recorded as “VapB degradation by Lon protease is ATP dependent”.
